Substrate in series [1]: C[C@H](NC(=O)CCC(=O)O)C(=O)N[C@@H](C)C(=O)N1CCC[C@H]1C(=O)N[C@@H](Cc1ccccc1)C(=O)Nc1ccc([N+](=O)[O-])cc1
The series is described as follows: Km and kcat of enzyme, Table 1. The series is classed as biochemical. Conditions: other: 0.05M sodium phosphate buffer at pH 8 containing 10% methanol. On the procedure: (§1) The yield of the active enzyme was determined by comparison of the relative activity of the native trypsin and the trypsin-polymer conjugate for N-succinyl-Ala-Ala-Pro-Phe p-nitroanilide as the substrate in 0.05M sodium phosphate buffer at pH 8 containing 10% methanol.
The procedure of EXAMPLE 8 (a) (i) was repeated in every essential detail except that Carlsberg-subtilisin was used instead of trypsin.

Substrate in series [2]: C[C@H](NC(=O)CCC(=O)O)C(=O)N[C@@H](C)C(=O)N1CCC[C@H]1C(=O)N[C@@H](Cc1ccccc1)C(=O)Nc1ccc([N+](=O)[O-])cc1
Briefly: Km and kcat of enzyme, Table 1. Conditions: other: 0.05M sodium phosphate buffer at pH 8 containing 10% methanol. In kind it is biochemical. As for the experimental part:
as §1
The procedure of EXAMPLE 8 (a) (i) was repeated in every essential detail except that BPN'-subtilisin was used instead of trypsin.
This is another data set of the same source.

The source of these data is patent US5492821A, “Stabilized polyacrylic saccharide protein conjugates” (Cargill, Inc., priority 1991, dated 1996).

B1: Carlsberg-subtilisin (native) (Bacillus licheniformis) (protein)
chain: AQTVPYGIPLIKADKVQAQGFKGANVKVAVLDTGIQASHPDLNVVGGASFVAGEAYNTDGNGHGTHVAGTVAALDNTTGVLGVAPSVSLYAVKVLNSSGSGSYSGIVSGIEWATTNGMDVINMSLGGASGSTAMKQAVDNAYAKGVVVVAAAGNSGSSGNTNTIGYPAKYDSVIAVGAVDSNSNRASFSSVGAELEVMAPGAGVYSTYPTNTYATLNGTSMASPHVAGAAALILSKHPNLSASQVRNRLSSTATYLGSSFYYGKGLINVEAAAQ
On to B1, for which, in series [1], the Michaelis constant (Km) was 251 µM and the kcat worked out at 420 s⁻¹.

B2: BPN'-subtilisin (native) (Bacillus amyloliquefaciens) (protein)
chain: AQSVPYGVSQIKAPALHSQGYTGSNVKVAVIDSGIDSSHPDLKVAGGASMVPSETNPFQDNNSHGTHVAGTVAALNNSIGVLGVAPSASLYAVKVLGADGSGQYSWIINGIEWAIANNMDVINMSLGGPSGSAALKAAVDKAVASGVVVVAAAGNEGTSGSSSTVGYPGKYPSVIAVGAVDSSNQRASFSSVGPELDVMAPGVSIQSTLPGNKYGAYNGTSMASPHVAGAAALILSKHPNWTNTQVRSSLENTTTKLGDSFYYGKGLINVQAAAQ
For the protein B2, in series [2], the Km amounted to 240 µM and the kcat came out at 83 s⁻¹.

Usually Km stands for the concentration of substrate that gives half-maximal velocity. What is called kcat is the maximal rate divided by the concentration of active sites.
